One experiment concerns the target T1, FLAG-SMARCAL1 (human, UniProt Q9NZC9 1-954).
T1 construct: also called SMARCAL1-WT; SMARCAL1 wild type
T1 sequence (looked up): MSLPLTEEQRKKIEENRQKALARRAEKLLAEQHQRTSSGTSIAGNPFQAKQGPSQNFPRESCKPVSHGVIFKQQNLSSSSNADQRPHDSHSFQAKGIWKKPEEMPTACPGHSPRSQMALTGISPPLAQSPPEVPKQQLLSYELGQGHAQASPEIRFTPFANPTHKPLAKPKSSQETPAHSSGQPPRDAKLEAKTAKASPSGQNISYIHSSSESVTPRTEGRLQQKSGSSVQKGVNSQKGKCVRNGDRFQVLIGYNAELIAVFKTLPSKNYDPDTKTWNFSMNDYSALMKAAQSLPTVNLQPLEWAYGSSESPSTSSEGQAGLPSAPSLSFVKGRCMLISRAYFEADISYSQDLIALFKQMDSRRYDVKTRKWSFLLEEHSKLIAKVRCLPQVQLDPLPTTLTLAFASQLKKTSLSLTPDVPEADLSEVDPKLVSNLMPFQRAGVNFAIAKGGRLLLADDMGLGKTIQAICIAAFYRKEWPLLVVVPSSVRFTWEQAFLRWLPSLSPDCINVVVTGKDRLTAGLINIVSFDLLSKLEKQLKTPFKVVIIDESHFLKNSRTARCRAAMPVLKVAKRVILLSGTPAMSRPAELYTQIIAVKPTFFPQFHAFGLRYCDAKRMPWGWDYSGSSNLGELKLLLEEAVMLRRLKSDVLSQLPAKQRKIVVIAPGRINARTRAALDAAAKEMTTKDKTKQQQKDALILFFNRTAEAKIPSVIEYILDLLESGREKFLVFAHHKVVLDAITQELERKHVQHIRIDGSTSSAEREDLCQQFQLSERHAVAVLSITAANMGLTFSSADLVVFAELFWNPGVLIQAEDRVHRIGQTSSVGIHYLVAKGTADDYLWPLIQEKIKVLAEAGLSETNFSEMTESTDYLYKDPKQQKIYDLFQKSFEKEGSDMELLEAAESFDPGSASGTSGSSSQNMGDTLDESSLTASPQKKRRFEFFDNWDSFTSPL
As to the kind of experiment: pull-down; MBP-RAD51 (bait) from bacterial soluble extract bound to amylose resin and washed; purified FLAG-SMARCAL1, FLAG-ZRANB3 or FLAG-BCDX2 (1 μg, prey) in 150 μl IP buffer (25 mM Tris-HCl pH 7.5, 100 mM NaCl, 3 mM EDTA, 0.5 mM DTT, BSA, 10% glycerol), 1 h at 4°C; eluted with maltose; Western blot with anti-MBP and anti-FLAG. To be noted: both partners purified. (In general: A western blot detects proteins with antibodies after separation by electrophoresis.)

The target in a further experiment is T2, FLAG-ZRANB3 (human, UniProt Q5FWF4 1-1079).
T2 construct: also called ZRANB3 WT
T2 sequence (looked up): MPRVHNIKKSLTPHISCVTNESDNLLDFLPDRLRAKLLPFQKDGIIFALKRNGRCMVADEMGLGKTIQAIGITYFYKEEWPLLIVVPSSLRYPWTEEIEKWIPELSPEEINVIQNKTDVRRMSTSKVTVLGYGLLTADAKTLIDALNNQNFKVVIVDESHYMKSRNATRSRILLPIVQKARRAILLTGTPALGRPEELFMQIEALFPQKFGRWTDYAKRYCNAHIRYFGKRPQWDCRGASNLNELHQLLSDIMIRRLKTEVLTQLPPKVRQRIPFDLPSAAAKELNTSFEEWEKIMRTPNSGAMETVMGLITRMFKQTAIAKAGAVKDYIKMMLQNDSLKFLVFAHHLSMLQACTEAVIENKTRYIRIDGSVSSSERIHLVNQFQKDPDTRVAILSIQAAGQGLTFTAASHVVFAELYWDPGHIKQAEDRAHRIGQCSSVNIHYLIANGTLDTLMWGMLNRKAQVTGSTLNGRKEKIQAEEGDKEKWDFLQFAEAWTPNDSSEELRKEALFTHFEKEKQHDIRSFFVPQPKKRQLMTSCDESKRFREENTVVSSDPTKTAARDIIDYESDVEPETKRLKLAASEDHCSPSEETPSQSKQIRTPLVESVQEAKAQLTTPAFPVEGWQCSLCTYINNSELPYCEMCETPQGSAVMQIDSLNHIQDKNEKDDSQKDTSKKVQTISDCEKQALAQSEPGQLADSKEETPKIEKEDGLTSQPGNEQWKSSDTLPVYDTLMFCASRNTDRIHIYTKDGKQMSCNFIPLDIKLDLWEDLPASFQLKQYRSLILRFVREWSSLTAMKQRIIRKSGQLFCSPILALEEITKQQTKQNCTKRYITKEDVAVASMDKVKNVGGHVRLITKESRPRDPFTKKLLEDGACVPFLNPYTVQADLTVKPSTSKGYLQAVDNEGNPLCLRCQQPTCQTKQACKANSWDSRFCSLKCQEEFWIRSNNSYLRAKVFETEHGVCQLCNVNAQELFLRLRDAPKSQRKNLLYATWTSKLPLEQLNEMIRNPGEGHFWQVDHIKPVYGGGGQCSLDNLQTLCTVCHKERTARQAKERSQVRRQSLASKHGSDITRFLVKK
The experiment is described as above. The note with it: both partners purified.

B1: MBP-RAD51 (natural protein, human, UniProt Q06609 1-339, looked up)
chain: MAMQMQLEANADTSVEEESFGPQPISRLEQCGINANDVKKLEEAGFHTVEAVAYAPKKELINIKGISEAKADKILAEAAKLVPMGFTTATEFHQRRSEIIQITTGSKELDKLLQGGIETGSITEMFGEFRTGKTQICHTLAVTCQLPIDRGGGEGKAMYIDTEGTFRPERLLAVAERYGLSGSDVLDNVAYARAFNTDHQTQLLYQASAMMVESRYALLIVDSATALYRTDYSGRGELSARQMHLARFLRMLLRLADEFGVAVVITNQVVAQVDGAAMFAADPKKPIGGNIIAHASTTRLYLRKGRGETRICKIYDSPCLPEAEAMFAINADGVGDAKD
notes: In the pull-downs the MBP tag was kept; the RAD51 of the DNA annealing assays was the same construct with the MBP cut off by PreScission protease and purified on HiTrap Q; not shown: MBP, N-terminal, kept
Consider B1, for which the binding result with FLAG-SMARCAL1 and in the experiment with FLAG-ZRANB3 was “binds” in each case.

For the origin of these results see article PMC9371921, “Strand annealing and motor driven activities of SMARCAL1 and ZRANB3 are stimulated by RAD51 and the paralog complex” (Nucleic Acids Research, 2022).
